For the test, the target named is purified αvβ3 integrin (human) (UniProt P06756). The experiment in a line: competition ELISA on αvβ3 coated wells; competitor: biotinylated FNfn10-3JCLI4 at 800 pM; no inhibition at the highest concentration. For orientation: An ELISA detects its analyte on a solid surface through an enzyme-linked reagent.

For the substance “wild-type FNfn10 (FNfn10-WT), purified protein (from UniProt P02751 1538-1631)”, the half-inhibitory concentration (IC50) (usually the concentration that inhibits the measured activity by half) is above 0.08 µM.
